Measurements: article PMC7105311, “Structure and function of Bs164 β-mannosidase from Bacteroides salyersiae the founding member of glycoside hydrolase family GH164” (The Journal of Biological Chemistry, 2019)

Experiments:
[1] = substrate: O=[N+]([O-])c1ccc(O[C@@H]2O[C@H](CO)[C@@H](O)[C@H](O)[C@@H]2O)cc1; experiment: stopped assay, p-nitrophenol absorbance; assay type: biochemical, Bacteroides salyersiae; settings: 80 mM MES pH 5.5, 160 mM NaCl, 25 °C
Description: stopped assay, p-nitrophenol absorbance on Bs164

purified protein = substrate: Cc1cc(=O)oc2cc(O[C@@H]3O[C@H](CO)[C@@H](O)[C@H](O)[C@@H]3O)ccc12; experiment: purified protein; assay type: biochemical, Bacteroides salyersiae; settings: 80 mM MES pH 5.5, 160 mM NaCl, 25 °C

B1: Bs164 (Bacteroides salyersiae CL02T12C01) (protein)
chain: ERISKQSTPFVGAQIFIEPGQTQEQIEQWFKLLAESNMTTCRIRMFGKYMKTPSGTYDFTLFDRAFKLADKYHIKVYATLFPDTEFTDVGGFKFPHSREHQKEVEDYIKNVVSHFSQYKNLAAWVLINEPGTPNLPFNEPFTKERFSDWKKEHNFSEYNEKGYPVLNFEKENFIIDYHNWYLNWLANQVRLYDKQHDLHVNPHNVFKLSGLYDFPTWRTFLNSLGGSAHASWHFGYFPRKAYTVAMSANAELIRSGAGELPWLMTELQGGNNLYSGANPLCPTAEEIIQWLWINFATEAKGGIFWSFNARSTAAEAGEWAMINFKNKSSDRLIAAATIGKFITENVKMMSNIKTLNSGISILYNHESMWVEAAQTRGKLNGNGRSIGAVMCSPLSYFEALSETGLQANFKEIKEFDFSLNDYTDQVIILSHQIALDNKVIKQLESFVEKGGTLIADGLTGYYDYQAHSTVVSGFALENLFGSYPIEYKIKENLFSLDFEKDNYKLPAHLWKGTIETSKATPIMDKEGECIACINQYGKGKVFWIPSPIALGARESKDFSELSKLTVSLLPNKILNDNPHFDKHYKDVMMKSFKSNGTMYSLIINKSASVQTVDIVGGKGKAFILFANKNAHSTANKLTISPEETVIIKWKNN
notes: tag cut by 3C protease for kinetics, His6-tagged for crystals
Km [1]: 3600 ± 800 µM
kcat [1]: 40 ± 3 s⁻¹
kcat/Km [1]: 11000 ± 3000 M⁻¹ s⁻¹
Km (purified protein): 1050 ± 80 µM
kcat (purified protein): 1.8 ± 0.05 s⁻¹
kcat/Km (purified protein): 1700 ± 100 M⁻¹ s⁻¹
